Source: patent publication US10919943B2, “Mutant proteins enabling agrochemical control of plant gene expression” (The Regents of the University of California, priority 2016, dated 2021)
Substitutions are numbered along the chain they refer to. Names and notes keep the numbering of the source. Marks after values point to notes of the source that are not given here.

Tests used:
HAB1 [1] = assay: Yeast two hybrid of pBD-PYR1 site saturation mutants with pACT-HAB1 on 10 μM ABA, β-galactosidase staining; assay type: cell-based, Arabidopsis; design: key: x: Mutations in PYR1 that disrupt ABA-induced binding to PYR1 to HAB1; details: S. cerevisiae Y190, 10 μM ABA; dead = lack of visible staining in comparison to wild type control
Summary of the method: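 S. cerevisiae Y190 co-expressing GAL4-DNA-binding-domain–PYR1 mutants and GAL4-activation-domain–HAB1 were spotted on SD (-Leu, -Trp) agar with 10 μM (+)-ABA for 2 days at 30° C. Colonies were chloroform-lysed and stained for β-galactosidase. Mutants lacking visible staining relative to wild type were scored as non-binding.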

[2] = target: T1, HAB1^! (Arabidopsis thaliana); assay: In vitro PP2C assay, ABA-promoted inhibition of GST-HAB1^! by receptor; assay type: biochemical; details: in response to ABA; 100 nM receptor, 50 nM PP2C; FIG. 2
T1 construct: 6xHis (N); made in house; host or cells: E. coli BL21 [DE3]pLysS
T1 sequence (O49686 whole entry T162D): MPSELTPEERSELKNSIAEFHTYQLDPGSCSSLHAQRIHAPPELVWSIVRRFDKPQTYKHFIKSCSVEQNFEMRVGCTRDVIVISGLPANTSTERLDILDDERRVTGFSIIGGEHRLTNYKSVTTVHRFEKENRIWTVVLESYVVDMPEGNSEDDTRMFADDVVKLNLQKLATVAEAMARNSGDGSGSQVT
Source text: (§1) In the presence of ABA, wild type PYR1 binds to HAB1 and docks into its active site, which inhibits its enzymatic activity by blocking access of substrates. To characterize the orthogonal PYR1^! and HAB1^! interaction biochemically, we produced recombinant forms of each protein in E. coli, along with the wild type form, and tested the wild type and orthogonal mutant for their ability to inhibit HAB1 and HAB1^! activities in vitro. We cloned PYR1^! into pET28 to generate 6×-His tagged receptor and cloned HAB1^! into pGEX-4T-1 to create a GST-fusion protein. The previously constructed (S.-Y. Park et al., 2009) wild type 6×-His-PYR1 and GST-HAB1 constructs were used for producing recombinant wild type proteins. The 6×-His-tagged receptors and GST-tagged PP2Cs were expressed and purified as previously described. Briefly, the proteins were expressed in BL21 [DE3]pLysS E. coli host cells at 18° C. overnight. […] The plates were read using a Victor 2 plate reader (PerkinElmer) (355 nm excitation, 460 nm emission) and assays run in triplicate. The PP2C activity values reported are expressed as percent control values, which were calculated by including the carrier solvent (1% DMSO) and the specific receptor assayed, but no ligand. […]

HAB1 [3] = assay: In vitro PP2C assay, ligand-promoted inhibition of GST-HAB1 by receptor; assay type: biochemical, Arabidopsis; details: ABA-promoted; FIG. 2
Source text: as §1, with “overnight. Fusion proteins were purified from sonicated lysates using Ni-NTA agarose (Qiagen, USA) or Pierce™ Glutathione Agarose (Thermo Scientific) according to the manufacturer's instructions. PP2C assays were conducted in 96-well polystyrene flat-bottom microtitre plates (Greiner).” for “overnight.”
According to our current understanding, in order for ABA signaling to be initiated in vivo, PP2C activity must be inhibited to enable accumulation of active SnRK2 kinases. […] 4-methylumbeliferyl phosphate was added (1 mM final concentration) was added to the reactions after 30 minutes equilibration and plates were read by fluorimetry. The PP2C activity values reported are expressed as percent control values, which was calculated by including the carrier solvent (1% DMSO) and the specific receptor assayed, but no ligand.

HAB1^! = target: T2, HAB1^! (Arabidopsis thaliana, UniProt O49686+Q9CAJ0, F108A/F159L/K59R/S122G/T162D/V393R/V81I/Y58H); assay: Yeast two hybrid, mandipropamid-promoted interaction of PYR1 variants with HAB1^!; assay type: cell-based; details: FIG. 3
T2 construct: expressed in transfected cells
T2 sequence (O49686 whole entry Y58H/K59R/V81I/F108A/S122G/F159L/T162D): as the sequence (O49686 whole entry T162D) above, with Y58H, K59R, V81I, F108A, S122G, F159L counted along it
T2 sequence (Q9CAJ0 4-511 V393R): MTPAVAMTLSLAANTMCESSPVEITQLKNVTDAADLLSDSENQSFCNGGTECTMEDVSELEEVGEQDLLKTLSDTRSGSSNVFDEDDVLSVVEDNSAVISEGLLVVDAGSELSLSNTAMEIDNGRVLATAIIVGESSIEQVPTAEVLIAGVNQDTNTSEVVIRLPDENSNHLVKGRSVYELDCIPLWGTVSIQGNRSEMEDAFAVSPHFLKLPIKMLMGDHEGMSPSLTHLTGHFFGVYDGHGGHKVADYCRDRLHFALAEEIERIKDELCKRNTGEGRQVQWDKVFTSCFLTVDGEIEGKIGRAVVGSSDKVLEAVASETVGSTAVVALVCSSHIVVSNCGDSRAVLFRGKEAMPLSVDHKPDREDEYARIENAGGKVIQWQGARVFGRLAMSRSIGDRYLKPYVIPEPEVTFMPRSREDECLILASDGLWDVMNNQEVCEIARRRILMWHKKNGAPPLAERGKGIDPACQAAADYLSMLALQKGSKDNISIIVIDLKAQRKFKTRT
Source text: (§2) To engineer orthogonal mandipropamid responsiveness, we introduced the PYR1^! mutation into the PYR1^MANDI receptor to create a septuple mutant called PYR1^!-MANDI (PYR1^Y58H;K59R;V81I;F108A;S122G;F159L;T162D). This mutant interacts with HAB1^! and HAB^!-2 in response to low μM mandipropamid in yeast two-hybrid assays, but is ˜100-fold less sensitive than the PYR1^MANDI/HAB1 interaction, which responds to concentrations in the low nM range (FIG. 3).

HAB1^!-2 = assay: Yeast two hybrid, mandipropamid-promoted interaction of PYR1 variants with HAB1^!-2; assay type: cell-based; details: FIG. 3, FIG. 4
Source text: as §2
To improve sensitivity, we mutagenized ligand contacting and interface residues in PYR1^!-MANDI using NNK primers, pooled the mutant libraries, and used the mutagenized receptors in selection experiments using to identify enhancer mutations. The NNK mutagenesis screen targeted the following residues: P55, H60, F61, I62, K63, V83, S85, G86, L87, P88, A89, S92, E94, I110, H115, R116, L117, Y120, E141, P148, G150, N151, D154, D155, T156, M158, A160, V163, V164, L166, N167, and K170. […] Since M158 and A160 flank the […] mutation present in PYR1^MANDI, we inferred that the closely located orthogonalizing T162D mutation in PYR1^!-MANDI may have reduced mandipropamid sensitivity by altering the local structure of the C-terminal α3-helix, which participates in ligand-induced conformational changes needed for PP2C binding (Nishimura et al., 2009). We therefore simultaneously mutagenized positions M158, F159 and A160 using a primer with degenerate NNK codons at all three positions. F159 was included in this mutagenesis because we have previously observed that multiple substitutions at F159 (A,C,I,L,M,T, or V) are permissive for mandipropamid responsiveness (S. Y. Park et al., n.d.), and sought to test whether residues other than leucine at position 159 might function better in the context of simultaneous changes to both A160 and M158. The mutagenic primer was used in QuickChange mutagenesis reactions using pBD-PYR1^!-MANDI template, and a library of ˜12,000 clones was generated. Plasmid DNA for the library was prepared from pooled E. coli transformants, and subsequently transformed into S. cerevisiae strain MAV99 harboring pACT-HAB1^!-2. ˜20,000 yeast transformants were generated, pooled, and plated onto SD(-Leu,-Trp) agar media supplemented with 0.1% fluorotic acid (to select against mutants that interact in a ligand-independent fashion). The surviving cells were collected and plated onto SD(Leu,-Trp,-Ura) plates supplemented with 50 nM mandipropamid. The colonies displaying the best uracil-independent growth were isolated and retested on different mandipropamid concentrations and then stained in β-galactosidase assays to rank their relative strength.

[4] = Phosphatase activity of recombinant GST-HAB1 proteins (4-methylumbeliferyl phosphate); assay type: biochemical; details: 1 μg protein, percent control (GST-HAB1); FIG. 7
Source text: as §1, with “described.” for “described. Briefly, the proteins were expressed in BL21 [DE3]pLysS E. coli host cells at 18° C. overnight.”
To characterize HAB1^!-3 and HAB1* in vitro, we cloned them into pGEX-4T-1 to create GST-fusion proteins. […] The PP2C activity values reported are expressed as percent control (GST-HAB1) from triplicate measurements.

PYR1*^-MANDI = target: T3, PYR1*^-MANDI (Arabidopsis thaliana, UniProt O49686, A160V/F108A/F159V/K59R/M158I/S122G/T162D/V81I/Y58H); assay: Yeast two hybrid, mandipropamid-induced interaction of HAB1 variants with pBD-PYR1*^-MANDI; assay type: cell-based; details: FIG. 5
T3 construct: expressed in transfected cells; host or cells: S. cerevisiae strain MAV99 (selection)
T3 sequence (O49686 1-191 Y58H/K59R/V81I/F108A/S122G/M158I/F159V/A160V/T162D): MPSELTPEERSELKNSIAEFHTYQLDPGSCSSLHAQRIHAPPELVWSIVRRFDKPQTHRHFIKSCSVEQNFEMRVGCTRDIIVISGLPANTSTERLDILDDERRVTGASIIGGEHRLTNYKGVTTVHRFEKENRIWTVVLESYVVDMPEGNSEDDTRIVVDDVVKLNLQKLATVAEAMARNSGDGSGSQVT
Source text: To investigate the effects of overexpressing HAB1^!-2 in Arabidopsis, we used Agrobacterium mediated transformation to generate 35S::GFP-HAB1^!-2 transgenic plants. HAB1^!-2 was cloned from pACT-HAB1^!-2 into pEGAD, a binary vector suitable for plant transformation, generating a 35S-driven GFP-HAB1^!-2 fusion protein. The clone was transformed into Agrobacterium and the floral dip method used to transform Arabidopsis. After selection of T0 seed on soil containing glufosinate, several T1 seedlings were identified. […] As an alternate strategy, we eliminated HAB1's catalytic activity by introducing a mutation in a conserved metal-ion binding residue (D204), which is homologous to D131A mutation in ABI1, previously shown to eliminate phosphatase activity without disrupting wild type receptor-ABI1 interactions (Liang et al., 2011). We used QuickChange mutagenesis to introduce the D204A mutation into pACT-HAB1^!-2, generating pACT-HAB1^!-3. When tested for mandipropamid induced interactions with pBD-PYR1*^-MANDI, HAB1^!-3 is ˜10-fold less sensitive to mandipropamid relative to HAB1^!-2 (FIG. 5).
D204 is located within HAB1's catalytic active site and binds to one of 3 catalytic Mg^++ ions that participate in catalysis. […] It is likely that disruptions to active site structure introduced by D204A destabilize the PYR1*^-MANDI/HAB1^!-3 interaction relative to HAB1^!-2. We reasoned that suppressor mutations in other HAB1 interface or active site residues could restore sensitivity by strengthening interactions with PYR1*^-MANDI. To identify such suppressors, we mutagenized the pACT-HAB1^!-3 template using NNK mutagenesis in 28 residues located with at the PYR1 binding interface. The residues targeted were: R199, S200, E201, E203, D243, G244, H245, G246, G247, S322, E323, T324, D346, K365, K381, 1383, Q384, W385, Q386, R389, F391, G392, Y404, S431, G433, D436, D492 and N394. The pACT-HAB1^!-3 template was mutagenized in 28 separate NNK mutagenesis reactions using the QuickChange protocol. Mini-libraries, each containing ˜1000 clones, were made for each NNK reaction and plasmid DNA for the 28 mutations prepared, pooled, and then transformed into S. cerevisiae strain MAV99 co-transformed with pBD-PYR1*^-MANDI, and then plated onto selective SD(-Leu,-Trp,-Ura) agar media supplemented with 500 nM mandipropamid. […] S322D and R199A were combined using the Lightning Multi-site Mutagenesis™ (Agilent, USA) method, and the resultant pentuple mutant tested in combination with pBD-PYR1*^-MANDI for sensitivity to mandipropamid using β-galactosidase assays.

B1: T162D: PYR1 mutant T162D, denoted PYR1^! (protein, UniProt O49686 1-191, looked up, variant T162D)
Abscisic acid receptor PYR1: T3 sequence (O49686 1-191 Y58H/K59R/V81I/F108A/S122G/M158I/F159V/A160V/T162D) with H58Y, R59K, I81V, A108F, G122S, I158M, V159F, V160A
Mutations in PYR1 that disrupt ABA-induced binding to PYR1 to HAB1 (HAB1 [1]): x | inhibition of HAB1^! phosphatase activity [2]: does not strongly inhibit | inhibition of HAB1 phosphatase activity (HAB1 [3]): unable to inhibit

B2: PYR1^!-MANDI: septuple PYR1 mutant (protein, UniProt O49686 1-191, looked up, variant Y58H K59R V81I F108A S122G F159L T162D)
Abscisic acid receptor PYR1: T3 sequence (O49686 1-191 Y58H/K59R/V81I/F108A/S122G/M158I/F159V/A160V/T162D) with I158M, V159L, V160A
mandipropamid concentration to which the interaction responds (HAB1^!): low μM | mandipropamid concentration to which the interaction responds (HAB1^!-2): low μM

B3: HAB1^!-3: HAB1^!-2 with the D204A mutation, catalytically inactive (protein)
chain: MTPAVAMTLSLAANTMCESSPVEITQLKNVTDAADLLSDSENQSFCNGGTECTMEDVSELEEVGEQDLLKTLSDTRSGSSNVFDEDDVLSVVEDNSAVISEGLLVVDAGSELSLSNTAMEIDNGRVLATAIIVGESSIEQVPTAEVLIAGVNQDTNTSEVVIRLPDENSNHLVKGRSVYELDCIPLWGTVSIQGNRSEMEAAFAVSPHFLKLPIKMLMGDHEGMSPSLTHLTGHFFGVYDGHGGHKVADYCRDRLHFALAEEIERIKDELCKRNTGEGRQVQWDKVFTSCFLTVDGEIEGKIGRAVVGSSDKVLEAVASETVGSTAVVALVCSSHIVVSNCGDSRAVLFRGKEAMPLSVDHKPDREDEYARIENAGGKVIQWQGARVFGRLAMSRSIGDRYLKPYVIPEPEVTFMPRSREDECLILASDGLWDVMNNQEVCEIARRRILMWHKKNGAPPLAERGKGIDPACQAAADYLSMLALQKGSKDNISIIVIDLKAQAKFKTRT
modifications: left off: small tags and cut ends
catalytic activity in vitro [4]: Neither HAB1^!-3 or HAB1* display detectable catalytic activity | fold less sensitive to mandipropamid relative to HAB1^!-2 (PYR1*^-MANDI): ~10 fold
